Measured values as given in the supplement of paper PMC10567573.
± gives the standard deviation.

Assay: protein stability index of a GFP-peptide fusion (GPS, HEK-293T) (PSI 1-6); higher = more stable
Conditions: c terminus: a fixed tail appended
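Further: 24-mer peptide tiles fused after GFP, lentivirally expressed, FACS-sorted into six equal bins by GFP/DsRed ratio, decoded by Illumina sequencing, PSI is the read-weighted mean bin number.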

| Sequence | protein stability index (treatment: DMSO) | protein stability index (treatment: MLN4924 1 uM, 8 h) |
| --- | --- | --- |
| ESSMEDCLAHLGEKVSQELKEPLH [BCL2L13] | 4.97 ± 0.2 | 5.09 ± 0.32 |
| FQLPERGSRLCLYEDGTELTEDYF [DFFB] | 3.71 ± 0.44 | 3.7 ± 0.47 |
| GVGAVPGPGTPTGPSLPSKRESPG [ZBTB22] | 5.41 ± 0.29 | 5.21 ± 0.14 |
| VHLVIWLLLVAKMSVGHLRLLSHD [JAGN1] | 3.39 ± 0.5 | 3.36 ± 0.63 |
| GATCMFVASKMKETIPLTAEKLCI [CCND1] | 2.34 ± 0.34 | 1.99 ± 0.41 |
| NRVSWWGSTLAMLQRLKEQQFVIA [ZBED1] | 2.41 ± 0.38 | 2.48 ± 1 |
| RSRSLDIQPSSEGLGPTSEPFPSS [SPAG8] | 5.46 ± 0.23 | 5.52 ± 0.094 |
| FVRGDHRDNSPFDGPGGNLAHAFQ [MMP1] | 2.34 ± 0.6 | 3.06 ± 0.29 |
| SGLGSCLPGSYLSSECHTSGFVGS [KRT36] | 2.62 ± 0.32 | 2.69 ± 0.23 |
| TRPKKMGSQLPKPRMLRESGHGDA [FATE1] | 4.53 ± 0.19 | 4.53 ± 0.22 |
| GYVANSSNCISGVCSVRGGEGRSR [KRT71] | 3.47 ± 0.2 | 3.73 ± 0.43 |
| FPALLSTGEFLKLPFERLAFVLSS [KLHL13] | 2.95 ± 0.74 | 3.08 ± 0.73 |
| FESGSVSFLNVTKSSLIWSYPAGS [TRIM43] | 2.13 ± 0.41 | 2.11 ± 0.13 |
| AVLGLLLVLAAVVAWCYYSVSLRK [MYORG] | 2.69 ± 0.52 | 2.77 ± 0.78 |
| GVSRGVGFIRFDKRIEAEEAIKGL [ELAVL3] | 3.572 ± 0.035 | 4.05 ± 0.57 |
| FSLVGKRAISTSVCVRAHESVVKS [COX4I1] | 2.75 ± 0.14 | 2.94 ± 0.3 |
| YSEHFLQEAKLLHWNGRHKPWDFP [GLT8D2] | 2.17 ± 0.21 | 2.41 ± 0.36 |
| MEQVHRGIKGLVRDSHGKGIPNAI [CPXM2] | 3.68 ± 0.56 | 4.35 ± 0.17 |
| MATESVDHELGRCTDSVVKYELMR [EHMT1] | 3.65 ± 0.29 | 3.69 ± 0.19 |
| QLERPLPLTSVCYPQDLPRPLRSR [TRAF3IP2] | 4.05 ± 0.21 | 4.1 ± 0.24 |
| HPMYRRLVHSAVDVPTIQEKVNEG [ZMYND11] | 4.11 ± 0.36 | 4.3 ± 0.17 |
| TPPPSPNTQTPVQPPPPPPPPPMQ [CCDC6] | 5.12 ± 0.084 | 5.26 ± 0.25 |
| NTEDWRPRPGTGQSRSFRILAHLT [PDLIM7] | 2.81 ± 0.33 | 2.9 ± 0.22 |

| Sequence | protein stability index (treatment: DMSO) | protein stability index (treatment: MLN4924 1 uM, 8 h) |
| --- | --- | --- |
| PLTSHILRAFVNSQIQGHKEMSKV [SNX8] | 2.3 ± 0.36 | 2.21 ± 0.3 |
| GKKYNTMLGYKRHLALHAASSGDL [PLAGL1] | 3.15 ± 0.12 | 3.28 ± 0.27 |
| DSGASAITRESHTHRDRPSQQQPL [CSNK1G1] | 5.09 ± 0.15 | 5.15 ± 0.17 |
| DTDKWIQKAPMTTVRGLHCMCTVG [KLHL13] | 2.32 ± 0.25 | 2.81 ± 0.35 |
| LLYWGIAEDHLDGCCKRRYLQKIE [KCNG1] | 1.95 ± 0.33 | 2.3 ± 0.12 |
| NKNEVFYQCPDQMARNPAAIDMFI [FBXO3] | 2.42 ± 0.17 | 2.65 ± 0.48 |
| ERCNQLLRALKLVITALKCHKYDR [ZER1] | 2.56 ± 0.47 | 2.71 ± 0.47 |
| RLASFDSSGKLICSRTTGYQILTL [GMCL1] | 2.63 ± 0.93 | 2.55 ± 0.19 |
| IQVVLNGMESYQEVTVQRNCCLTL [ZER1] | 3.21 ± 0.47 | 3.01 ± 0.73 |
| LTRHTKKTHSQELMKESLQTGDLL [PLAGL1] | 4.35 ± 0.28 | 4.59 ± 0.12 |
| IVLNKINQILMEKYLKLQDTCRTQ [INTS3] | 3.59 ± 0.83 | 3.24 ± 0.61 |
| VFNLFRTMGLRHLPVVNAVGEIVG [CLCN6] | 2.45 ± 0.21 | 2.29 ± 0.18 |
| KKSGEKEQHISKCKKAFREGSRKS [KMT2E] | 4.23 ± 0.78 | 4.61 ± 0.27 |
| GLRQRASNKVQDSAPVETPRGKPP [HMOX1] | 5 ± 0.25 | 4.83 ± 0.2 |
| RSCGGGVTSQERHCLQQRRKSVPG [ADAMTSL2] | 4.58 ± 0.25 |  |
| ECYDPRTQQWTAICPLKERRFGAV [GAN] | 2.69 ± 0.18 | 2.62 ± 0.3 |
| LSLNMDNLQDTLEAASFLQILPVL [KLHL13] | 2.66 ± 0.52 | 2.72 ± 0.45 |
| KILVGNRLHLAFKRQVPTEQAQAY [RAB40B] | 2.07 ± 0.16 | 2.5 ± 0.23 |
| VCTISSTGPLQPQPKKPEDEPQET [PKD2L1] | 5.39 ± 0.21 | 5.48 ± 0.16 |
| IPERLSIFCRDTQTVFQKKNLQQT [IQUB] | 2.87 ± 0.19 | 2.98 ± 0.51 |
| MMTLLMKKDTLTEEETQFYISETV [STK38L] | 3.16 ± 0.23 | 3.3 ± 0.31 |
| QAVVLCSKKTFQITKQGDGVDFLS [USP39] | 2.57 ± 0.18 | 2.77 ± 0.38 |
